Laboratory results: the supplement of paper PMC5998384

Key:
HeLa Kyoto [1] = assay: solubility change mitosis vs G1/S (difference of NP-40 vs SDS log2 ratios) (log2 ratio difference); higher = more soluble in mitosis
HeLa Kyoto [2] = assay: thermal stability score vs G1/S (z-score of summed log2 fold changes over temperatures); higher = more thermally stable than in G1/S
HeLa Kyoto [3] = assay: solubility in G1/S (NP-40 vs SDS abundance) (log2 ratio); higher = more soluble; conditions: cell cycle stage: G1/S
[4] = cell cycle stage: early G1 (4.5 h after nocodazole release)
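Throughout, for solubility change mitosis vs G1/S (difference of NP-40 vs SDS log2 ratios): synchronized HeLa Kyoto cells (double thymidine block for G1/S, nocodazole release for mitosis), protein amounts in NP-40 versus SDS lysates quantified by mass spectrometry, three biological replicates.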
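Throughout, for solubility in G1/S (NP-40 vs SDS abundance): HeLa Kyoto cells arrested at G1/S by double thymidine block, proteins quantified by TMT10plex mass spectrometry in mild NP-40 versus SDS extracts, three biological replicates.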
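Throughout, for thermal stability score vs G1/S (z-score of summed log2 fold changes over temperatures): synchronized HeLa Kyoto cells, proteins quantified by TMT10plex mass spectrometry, three biological replicates, mitosis taken 0.5 h after nocodazole release, G1/S directly after double thymidine block.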

Sequence | solubility change mitosis (log2) (HeLa Kyoto [1]) | thermal stability score (HeLa Kyoto [2]; [4]) | thermal stability score (HeLa Kyoto [2]; cell cycle stage: mitosis) | solubility in G1/S (log2) (HeLa Kyoto [3])
MGDMKTPDFDDLLAAFDIPDPTSLDAKEAIQTPSEENESPLKPPGICMDESVSLSHSGSAPDVPAVSVIVKNTSRQESFEAEKDHITPSLLHNGFRGSDLPPDPHNCGKFDSTFMNGDSARSFPGKLEPPKSEPLPTFNQFSPISSPEPEDPIKDNGFGIKPKHSDSYFPPPLGCGAVGGPVLEALAKFPVPELHMFDHFCKKEPKPEPLPLGSQQEHEQSGQNTVEPHKDPDATRFFGEALEFNSHPSNSIGESKGLARELGTCSSVPPRQRLKPAHSKLSSCVAALVALQAKRVASVTKEDQPGHTKDLSGPTKESSKGSPKMPKSPKSPRSPLEATRKSIKPSDSPRSICSDSSSKGSPSVAASSPPAIPKVRIKTIKTSSGEIKRTVTRILPDPDDPSKSPVGSPLGSAIAEAPSEMPGDEVPVEEHFPEAGTNSGSPQGARKGDESMTKASDSSSPSCSSGPRVPKGAAPGSQTGKKQQSTALQASTLAPANLLPKAVHLANLNLVPHSVAASVTAKSSVQRRSQPQLTQMSVPLVHQVKKAAPLIVEVFNKVLHSSNPVPLYAPNLSPPADSRIHVPASGYCCLECGDAFALEKSLSQHYGRRSVHIEVLCTLCSKTLLFFNKCSLLRHARDHKSKGLVMQCSQLLVKPISADQMFVSAPVNSTAPAAPAPSSSPKHGLTSGSASPPPPALPLYPDPVRLIRYSIKCLECHKQMRDYMVLAAHFQRTTEETEGLTCQVCQMLLPNQCSFCAHQRIHAHKSPYCCPECGVLCRSAYFQTHVKENCLHYARKVGYRCIHCGVVHLTLALLKSHIQERHCQVFHKCAFCPMAFKTASSTADHSATQHPTQPHRPSQLIYKCSCEMVFNKKRHIQQHFYQNVSKTQVGVFKCPECPLLFVQKPELMQHVKSTHGVPRNVDELSSLQSSADTSSSRPGSRVPTEPPATSVAARSSSLPSGRWGRPEAHRRVEARPRLRNTGWTCQECQEWVPDRESYVSHMKKSHGRTLKRYPCRQCEQSFHTPNSLRKHIRNNHDTVKKFYTCGYCTEDSPSFPRPSLLESHISLMHGIRNPDLSQTSKVKPPGGHSPQVNHLKRPVSGVGDAPGTSNGATVSSTKRHKSLFQCAKCSFATDSGLEFQSHIPQHQVDSSTAQCLLCGLCYTSASSLSRHLFIVHKVRDQEEEEEEEAAAAEMAVEVAEPEEGSGEEVPMETRENGLEECAGEPLSADPEARRLLGPAPEDDGGHNDHSQPQASQDQDSHTLSPQV [ZNF592] | 0.109 | -0.704 | -1.78 | -0.283
MGKMAAAVGSVATLATEPGEDAFRKLFRFYRQSRPGTADLEGVIDFSAAHAARGKGPGAQKVIKSQLNVSSVSEQNAYRAGLQPVSKWQAYGLKGYPGFIFIPNPFLPGYQWHWVKQCLKLYSQKPNVCNLDKHMSKEETQDLWEQSKEFLRYKEATKRRPRSLLEKLRWVTVGYHYNWDSKKYSADHYTPFPSDLGFLSEQVAAACGFEDFRAEAGILNYYRLDSTLGIHVDRSELDHSKPLLSFSFGQSAIFLLGGLQRDEAPTAMFMHSGDIMIMSGFSRLLNHAVPRVLPNPEGEGLPHCLEAPLPAVLPRDSMVEPCSMEDWQVCASYLKTARVNMTVRQVLATDQNFPLEPIEDEKRDISTEGFCHLDDQNSEVKRARINPDS [ALKBH1] | -0.0399 | -0.273 | 0.558 | 0.0175
MGLSAAAPLWGPPGLLLAIALHPALSVPPRRDYCVLGAGPAGLQMAYFLQRAGRDYAVFERAPRPGSFFTRYPRHRKLISINKRYTGKANAEFNLRHDWNSLLSHDPRLLFRHYSRAYFPDARDMVRYLGDFADTLGLRVQYNTTIAHVTLDKDRQAWNGHYFILTDQKGQVHQCSVLFVATGLSVPNQVDFPGSEYAEGYESVSVDPEDFVGQNVLILGRGNSAFETAENILGVTNFIHMLSRSRVRLSWATHYVGDLRAINNGLLDTYQLKSLDGLLESDLTDLAILKDSKGKFHVTPKFFLEEANTNQSADSITLPQDDNDNFAMRVPYDRVIRCLGWNFDFSIFNKSLRLNSGNAFGKKYPLIRASYESKGSRGLFILGTASHSVDYRKSAGGFIHGFRYTVRAVHRLLEHRHHSVTWPATELPITQLTSSIVRRVNEASGLYQMFGVLADVILLKENSTAFEYLEEFPIQMLAQLETLTGRKAKHGLFVINMEYGRNFSGPDKDVFFDDRSVGHTEDAWQSNFLHPVIYYYRYLPTEQEVRFRPAHWPLPRPTAIHHIVEDFLTDWTAPIGHILPLRRFLENCLDTDLRSFYAESCFLFALTRQKLPPFCQQGYLRMQGLVSTESLWQHRVESRLLRDYAPTGRRLEDSSQQLGDQEPLGSPLAPGPLAQSVDSNKEEL [FOXRED2] | 0.00992 | 0.289 | 1.28 | -0.0337
MGSENSALKSYTLREPPFTLPSGLAVYPAVLQDGKFASVFVYKRENEDKVNKAAKHLKTLRHPCLLRFLSCTVEADGIHLVTERVQPLEVALETLSSAEVCAGIYDILLALIFLHDRGHLTHNNVCLSSVFVSEDGHWKLGGMETVCKVSQATPEFLRSIQSIRDPASIPPEEMSPEFTTLPECHGHARDAFSFGTLVESLLTILNEQVSADVLSSFQQTLHSTLLNPIPKCRPALCTLLSHDFFRNDFLEVVNFLKSLTLKSEEEKTEFFKFLLDRVSCLSEELIASRLVPLLLNQLVFAEPVAVKSFLPYLLGPKKDHAQGETPCLLSPALFQSRVIPVLLQLFEVHEEHVRMVLLSHIEAYVEHFTQEQLKKVILPQVLLGLRDTSDSIVAITLHSLAVLVSLLGPEVVVGGERTKIFKRTAPSFTKNTDLSLEDSPMCVVCSHHSQISPILENPFSSIFPKCFFSGSTPINSKKHIQRDYYNTLLQTGDPFSQPIKFPINGLSDVKNTSEDSENFPSSSKKSEEWPDWSEPEEPENQTVNIQIWPREPCDDVKSQCTTLDVEESSWDDCEPSSLDTKVNPGGGITATKPVTSGEQKPIPALLSLTEESMPWKSSLPQKISLVQRGDDADQIEPPKVSSQERPLKVPSELGLGEEFTIQVKKKPVKDPEMDWFADMIPEIKPSAAFLILPELRTEMVPKKDDVSPVMQFSSKFAAAEITEGEAEGWEEEGELNWEDNNW [SCYL3] | -0.0596 | 0.969 | 0.364 | -0.0689
MKCEHCTRKECSKKTKTDDQENVSADAPSPAQENGEKGEFHKLADAKIFLSDCLACDSCMTAEEGVQLSQQNAKDFFRVLNLNKKCDTSKHKVLVVSVCPQSLPYFAAKFNLSVTDASRRLCGFLKSLGVHYVFDTTIAADFSILESQKEFVRRYRQHSEEERTLPMLTSACPGWVRYAERVLGRPITAHLCTAKSPQQVMGSLVKDYFARQQNLSPEKIFHVIVAPCYDKKLEALQESLPPALHGSRGADCVLTSGEIAQIMEQGDLSVRDAAVDTLFGDLKEDKVTRHDGASSDGHLAHIFRHAAKELFNEDVEEVTYRALRNKDFQEVTLEKNGEVVLRFAAAYGFRNIQNMILKLKKGKFPFHFVEVLACAGGCLNGRGQAQTPDGHADKALLRQMEGIYADIPVRRPESSAHVQELYQEWLEGINSPKAREVLHTTYQSQERGTHSLDIKW [NARF] | -0.273 | -0.279 | -0.0946 | 0.474
MKEGRGSFSVERGPRKERETAQSGMWKGNSPAGSQGAAMEGTGGELGGQGNWGPEDAPGLLARASLIMLPWPLPLASSALTLLFGALTSLFLWYCYRLGSQDMQALGAGSRAGGVRGGPVGCSEAGGPSPGGPGDPGEGPRTEGLVSRRLRAYARRYSWAGMGRVRRAAQGGPGPGRGPGVLGIQRPGLLFLPDLPSAPFVPRDAQRHDVELLESSFPAILRDFGAVSWDFSGTTPPPRGWSPPLAPGCYQLLLYQAGRCQPSNCRRCPGAYRALRGLRSFMSANTFGNAGFSVLLPGARLEGRCGPTNARVRCHLGLKIPPGCELVVGGEPQCWAEGHCLLVDDSFLHTVAHNGSPEDGPRVVFIVDLWHPNVAGAERQALDFVFAPDP [ASPHD1] | -0.229 | 1.03 | 1.87 | 0.213
MKHINLSFAACGFLGIYHLGAASALCRHGKKLVKDVKAFAGASAGSLVASVLLTAPEKIEECNQFTYKFAEEIRRQSFGAVTPGYDFMARLRSGMESILPPSAHELAQNRLHVSITNAKTRENHLVSTFSSREDLIKVLLASSFVPIYAGLKLVEYKGQKWVDGGLTNALPILPVGRTVTISPFSGRLDISPQDKGQLDLYVNIAKQDIMLSLANLVRLNQALFPPSKRKMESLYQCGFDDTVKFLLKENWFE [PNPLA4] | -0.145 | 0.304 | 1.11 | 0.107
MLLAQINRDSQGMTEFPGGGMEAQHVTLCLTEAVTVADGDNLENMEGVSLQAVTLADGSTAYIQHNSKDAKLIDGQVIQLEDGSAAYVQHVPIPKSTGDSLRLEDGQAVQLEDGTTAFIHHTSKDSYDQSALQAVQLEDGTTAYIHHAVQVPQSDTILAIQADGTVAGLHTGDATIDPDTISALEQYAAKVSIDGSESVAGTGMIGENEQEKKMQIVLQGHATRVTAKSQQSGEKAFRCEYDGCGKLYTTAHHLKVHERSHTGDRPYQCEHAGCGKAFATGYGLKSHVRTHTGEKPYRCSEDNCTKSFKTSGDLQKHIRTHTGERPFKCPFEGCGRSFTTSNIRKVHVRTHTGERPYYCTEPGCGRAFASATNYKNHVRIHTGEKPYVCTVPGCDKRFTEYSSLYKHHVVHTHSKPYNCNHCGKTYKQISTLAMHKRTAHNDTEPIEEEQEAFFEPPPGQGEDVLKGSQITYVTGVEGDDVVSTQVATVTQSGLSQQVTLISQDGTQHVNISQADMQAIGNTITMVTQDGTPITVPAHDAVISSAGTHSVAMVTAEGTEGEQVAIVAQDLAAFHTASSEMGHQQHSHHLVTTETRPLTLVATSNGTQIAVQLGEQPSLEEAIRIASRIQQGETPGLDD [ZNF143] | 0.313 | 0.385 | 0.819 | -0.143
MLLWPLRGWAARALRCFGPGSRGSPASGPGPRRVQRRAWPPDKEQEKEKKSVICVEGNIASGKTTCLEFFSNATDVEVLTEPVSKWRNVRGHNPLGLMYHDASRWGLTLQTYVQLTMLDRHTRPQVSSVRLMERSIHSARYIFVENLYRSGKMPEVDYVVLSEWFDWILRNMDVSVDLIVYLRTNPETCYQRLKKRCREEEKVIPLEYLEAIHHLHEEWLIKGSLFPMAAPVLVIEADHHMERMLELFEQNRDRILTPENRKHCP [TK2] | 0.0925 | -2.93 | -2.11 | -0.273
MLRGPWRQLWLFFLLLLPGAPEPRGASRPWEGTDEPGSAWAWPGFQRLQEQLRAAGALSKRYWTLFSCQVWPDDCDEDEEAATGPLGWRLPLLGQRYLDLLTTWYCSFKDCCPRGDCRISNNFTGLEWDLNVRLHGQHLVQQLVLRTVRGYLETPQPEKALALSFHGWSGTGKNFVARMLVENLYRDGLMSDCVRMFIATFHFPHPKYVDLYKEQLMSQIRETQQLCHQTLFIFDEAEKLHPGLLEVLGPHLERRAPEGHRAESPWTIFLFLSNLRGDIINEVVLKLLKAGWSREEITMEHLEPHLQAEIVETIDNGFGHSRLVKENLIDYFIPFLPLEYRHVRLCARDAFLSQELLYKEETLDEIAQMMVYVPKEEQLFSSQGCKSISQRINYFLS [TOR3A] | -0.118 | 2.36 | 1.03 | 0.0484
MNPTETKAIPVSQQMEGPHLPNKKKHKKQAVKTEPEKKSQSTKLSVVHEKKSQEGKPKEHTEPKSLPKQASDTGSNDAHNKKAVSRSAEQQPSEKSTEPKTKPQDMISAGGESVAGITAISGKPGDKKKEKKSLTPAVPVESKPDKPSGKSGMDAALDDLIDTLGGPEETEEENTTYTGPEVSDPMSSTYIEELGKREVTIPPKYRELLAKKEGITGPPADSSKPIGPDDAIDALSSDFTCGSPTAAGKKTEKEESTEVLKAQSAGTVRSAAPPQEKKRKVEKDTMSDQALEALSASLGTRQAEPELDLRSIKEVDEAKAKEEKLEKCGEDDETIPSEYRLKPATDKDGKPLLPEPEEKPKPRSESELIDELSEDFDRSECKEKPSKPTEKTEESKAAAPAPVSEAVCRTSMCSIQSAPPEPATLKGTVPDDAVEALADSLGKKEADPEDGKPVMDKVKEKAKEEDREKLGEKEETIPPDYRLEEVKDKDGKPLLPKESKEQLPPMSEDFLLDALSEDFSGPQNASSLKFEDAKLAAAISEVVSQTPASTTQAGAPPRDTSQSDKDLDDALDKLSDSLGQRQPDPDENKPMEDKVKEKAKAEHRDKLGERDDTIPPEYRHLLDDNGQDKPVKPPTKKSEDSKKPADDQDPIDALSGDLDSCPSTTETSQNTAKDKCKKAASSSKAPKNGGKAKDSAKTTEETSKPKDD [CAST] | 0.0186 | -1.5 | -2.61 | 0.36
